Experimental data from patent US20050196758.

Molecular target: T1, trans-2-butenoyl-ACP (acyl carrier protein carrying the trans-2-butenoyl group), P0A6A8
T1 chain: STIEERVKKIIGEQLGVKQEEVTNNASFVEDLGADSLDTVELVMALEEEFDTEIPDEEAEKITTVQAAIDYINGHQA

B1: His-tagged FabK (enoyl-ACP reductase II) of Streptococcus pneumoniae (protein)
chain: MKTRITELLKIDYPIFQGGMAWVADGDLAGAVSKAGGLGIIGGGNAPKEVVKANIDKIKSLTDKPFGVNIMLLSPFVEDIVDLVIEEGVKVVTTGAGNPSKYMERFHEAGIIVIPVVPSVALAKRMEKIGADAVIAEGMEAGGHIGKLTTMTLVRQVATAISIPVIAAGGIADGEGAAAGFMLGAEAVQVGTRFVVAKESNAHPNYKEKILKARDIDTTISAQHFGHAVRAIKNQLTRDFELAEKDAFKQEDPDLEIFEQMGAGALAKAVVHGDVDGGSVMAGQIAGLVSKEETAEEILKDLYYGAAKKIQEEASRWTGVVRND
In the case of B1, the “specific activity (enoyl-ACP reductase activity, coupled in vitro assay, butyryl-ACP formation by gel electrophoresis)” value is reported as 66±4 nmole product formed/min/mg FabK.
